What all share (assay): purified protein
What all share (format): biochemical, Sakaguchia sp.

Substrate in data set [1]: CCCCCCCCCCCCCC(=O)Oc1ccc([N+](=O)[O-])cc1
Substrate in data set [2]: CCCCCCCCCCCC(=O)Oc1ccc([N+](=O)[O-])cc1
Substrate in data set [3]: CCCCCCCCCC(=O)Oc1ccc([N+](=O)[O-])cc1
Substrate in data set [4]: CC(=O)Oc1ccc([N+](=O)[O-])cc1
Substrate in data set [5]: CCCCCCCC(=O)Oc1ccc([N+](=O)[O-])cc1
Substrate in data set [6]: CCCCCC(=O)Oc1ccc([N+](=O)[O-])cc1
Substrate in data set [7]: CCCCCCCCCCCCCCCC(=O)Oc1ccc([N+](=O)[O-])cc1
Substrate in data set [8]: CCCC(=O)Oc1ccc([N+](=O)[O-])cc1
[9] abbreviates: 50 mM Tris-HCl pH 7.5, optimal temperature (45 °C).
[10] abbreviates: 50 mM Tris-HCl pH 7.5, optimal temperature (35 °C).

The source of these data is publication PMC12042792, “Discovery of two novel cutinases from a gut yeast of plastic-eating mealworm for polyester depolymerization” (Applied and Environmental Microbiology, 2025).

A word on the Km: it is the concentration of substrate that gives half-maximal velocity. A word on the kcat: it is the maximal rate divided by the concentration of active sites. The term kcat/Km denotes the second-order rate constant that governs catalysis at low substrate concentration.

B1: SiCut2 (Sakaguchia sp.) (protein)
chain: TAIGERQLGCAPLELFHAAGTSEVGQGIIGRAYQSALPRAVSGATVTPVIYSTIAEYFTTVRAGAQTMQRQLTSRAAACPNTKFVLSGYSKGALVVHEVKLPAAIQSKVVAVTLFGDPKNGQFGSSVVPINNKACFFSFCNRGDVFCDRGISLAAHLAYATDGSVTTAARNIAECFNA
notes: no tag mentioned; diafiltered culture supernatant
As for B1, the Km came out at 4.44 ± 0.5 µM in the data set “purified protein [1]” (setting [9]); 2.22 ± 1.9 µM in the data set “purified protein [2]” (setting [9]); 2.47 ± 0.09 µM in the data set “purified protein [3]” (setting [9]); 6.18 ± 0.49 µM in the data set “purified protein [4]” (setting [9]); 0.89 ± 0.12 µM in “purified protein [5]” (setting [9]); 1.44 ± 1.51 µM in “purified protein [6]” (setting [9]). For the same protein, the Km in “purified protein [7]” (setting [9]) is recorded as 4.01 ± 1.3 µM; in the data set “purified protein [8]” (setting [9]) it was 2.82 ± 0.58 µM. Moreover, the kcat in the data set “purified protein [1]” (setting [9]) came to 0.832 ± 0.0117 s⁻¹; in the data set “purified protein [2]” (setting [9]), 0.983 ± 0.035 s⁻¹; in the data set “purified protein [3]” (setting [9]), 1.48 ± 0.0342 s⁻¹; in “purified protein [4]” (setting [9]), 0.665 ± 0.07 s⁻¹; in “purified protein [5]” (setting [9]), 2.079 ± 0.0025 s⁻¹; in the data set “purified protein [6]” (setting [9]), 1.26 ± 0.0175 s⁻¹. In addition, the kcat amounted to 0.603 ± 0.0417 s⁻¹ in “purified protein [7]” (setting [9]) and 1.13 ± 0.066 s⁻¹ in the data set “purified protein [8]” (setting [9]). Also, the kcat/Km in the data set “purified protein [1]” (setting [9]) amounted to 187000 ± 10000 M⁻¹ s⁻¹; in “purified protein [2]” (setting [9]) it was 443000 ± 4330 M⁻¹ s⁻¹; in the data set “purified protein [3]” (setting [9]), 600700 ± 667 M⁻¹ s⁻¹; in “purified protein [4]” (setting [9]) it was 108000 ± 11300 M⁻¹ s⁻¹; in the data set “purified protein [5]” (setting [9]), 2.344e+06 ± 13800 M⁻¹ s⁻¹; in the data set “purified protein [6]” (setting [9]), 875000 ± 11700 M⁻¹ s⁻¹. Moreover, the results for the kcat/Km in the data set “purified protein [7]” (setting [9]) and in the data set “purified protein [8]” (setting [9]) were 150000 ± 3830 M⁻¹ s⁻¹ and 401000 ± 5000 M⁻¹ s⁻¹, respectively.

B2: SiCut1 (Sakaguchia sp.) (protein)
chain: AAIAERQSSACAPLELYHAAGTSESGLGTVGRAFQTALPREVQGATVSPLNYNTNAEYSSTVTAGAQTFQQLLTSRAAACPNTKFVLSGYSKGALVVHKVTLPSAVQSKVVAITVFGDPQAGQFGATTVPINNKACFFSFCNRGDTFCDRGGNFAAHLAYATDGSVTTASRNIAGCYRA
notes: as for B1
B2: the Km amounted to 3.46 ± 0.02 µM in the data set “purified protein [1]” (setting [10]); 3.21 ± 0.63 µM in “purified protein [2]” (setting [10]); 7.57 ± 0.01 µM in “purified protein [3]” (setting [10]); 9.12 ± 0.04 µM in “purified protein [4]” (setting [10]); 2.01 ± 0.63 µM in the data set “purified protein [5]” (setting [10]); 0.66 ± 2.77 µM in the data set “purified protein [6]” (setting [10]). Moreover, the Km in the data set “purified protein [7]” (setting [10]) was found to be 7.09 ± 0.27 µM; in “purified protein [8]” (setting [10]), 1.73 ± 0.99 µM. In addition, the kcat in “purified protein [1]” (setting [10]) is 0.213 ± 0.00217 s⁻¹; in the data set “purified protein [2]” (setting [10]), 0.7233 ± 0.00283 s⁻¹; in “purified protein [3]” (setting [10]) it was 0.672 ± 0.026 s⁻¹; in the data set “purified protein [4]” (setting [10]), 0.3212 ± 0.00267 s⁻¹; in “purified protein [5]” (setting [10]) it was 1.002 ± 0.00267 s⁻¹; in “purified protein [6]” (setting [10]), 0.8588 ± 0.00717 s⁻¹. The turnover number (kcat) in the data set “purified protein [7]” (setting [10]) turned out to be 0.2155 ± 0.002 s⁻¹; in “purified protein [8]” (setting [10]) it was 0.796 ± 0.00367 s⁻¹. The kcat/Km in the data set “purified protein [1]” (setting [10]) is 61700 ± 1330 M⁻¹ s⁻¹; in the data set “purified protein [2]” (setting [10]), 225000 ± 500 M⁻¹ s⁻¹; in “purified protein [3]” (setting [10]), 88800 ± 3170 M⁻¹ s⁻¹; in the data set “purified protein [4]” (setting [10]) it was 35200 ± 3000 M⁻¹ s⁻¹; in the data set “purified protein [5]” (setting [10]), 501000 ± 1500 M⁻¹ s⁻¹; in “purified protein [6]” (setting [10]), 1.305e+06 ± 1830 M⁻¹ s⁻¹. For the same protein, the kcat/Km in “purified protein [7]” (setting [10]) was 30300 ± 2170 M⁻¹ s⁻¹; in “purified protein [8]” (setting [10]), 459800 ± 2330 M⁻¹ s⁻¹.
